Measurements from patent publication US20200071711, “MODULAR CONSTRUCTION OF SYNTHETIC GENE CIRCUITS IN MAMMALIAN CELLS USING MATHEMATICAL MODELING OF CLOSED LOOP TRANSCRIPTIONAL REPRESSORS” (Tsinghua University, published 2020).

Assays:
Test in all cases: cell_activity; HEK293, two sites flanking CMVmini
Details in all cases: tags: EYFP-2A upstream, SV40 NLS
[1] = target: T1, TALER15 (synthetic, UniProt B2SU53 SEQ:1-1010)
T1 chain: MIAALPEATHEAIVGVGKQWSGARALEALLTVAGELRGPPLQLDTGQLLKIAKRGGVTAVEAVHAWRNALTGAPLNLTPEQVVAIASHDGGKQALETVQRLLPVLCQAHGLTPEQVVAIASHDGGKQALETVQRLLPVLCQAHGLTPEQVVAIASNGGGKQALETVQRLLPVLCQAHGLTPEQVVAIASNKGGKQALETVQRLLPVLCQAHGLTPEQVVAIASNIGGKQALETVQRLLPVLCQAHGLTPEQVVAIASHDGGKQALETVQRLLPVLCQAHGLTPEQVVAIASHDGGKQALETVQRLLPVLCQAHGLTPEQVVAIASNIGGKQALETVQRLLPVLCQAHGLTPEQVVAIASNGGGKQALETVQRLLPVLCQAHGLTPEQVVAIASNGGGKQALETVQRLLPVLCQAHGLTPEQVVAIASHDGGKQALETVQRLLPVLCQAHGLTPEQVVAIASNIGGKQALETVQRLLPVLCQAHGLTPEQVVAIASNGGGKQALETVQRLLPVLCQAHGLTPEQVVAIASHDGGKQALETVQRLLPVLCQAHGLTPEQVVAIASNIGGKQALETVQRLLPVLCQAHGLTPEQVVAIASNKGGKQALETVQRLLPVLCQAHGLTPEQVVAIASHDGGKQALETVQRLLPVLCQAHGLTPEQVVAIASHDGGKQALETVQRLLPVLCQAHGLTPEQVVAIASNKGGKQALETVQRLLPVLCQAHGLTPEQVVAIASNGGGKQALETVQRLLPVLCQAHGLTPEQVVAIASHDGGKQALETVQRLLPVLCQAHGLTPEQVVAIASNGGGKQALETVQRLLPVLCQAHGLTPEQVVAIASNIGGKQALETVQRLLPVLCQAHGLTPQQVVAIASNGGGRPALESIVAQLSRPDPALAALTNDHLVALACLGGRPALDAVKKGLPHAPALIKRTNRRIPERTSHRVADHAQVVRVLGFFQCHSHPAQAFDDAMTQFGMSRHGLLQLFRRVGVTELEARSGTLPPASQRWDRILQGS

[2] = target: T2, TALER17 (synthetic, UniProt B2SU53 SEQ:1-1010)
T2 chain: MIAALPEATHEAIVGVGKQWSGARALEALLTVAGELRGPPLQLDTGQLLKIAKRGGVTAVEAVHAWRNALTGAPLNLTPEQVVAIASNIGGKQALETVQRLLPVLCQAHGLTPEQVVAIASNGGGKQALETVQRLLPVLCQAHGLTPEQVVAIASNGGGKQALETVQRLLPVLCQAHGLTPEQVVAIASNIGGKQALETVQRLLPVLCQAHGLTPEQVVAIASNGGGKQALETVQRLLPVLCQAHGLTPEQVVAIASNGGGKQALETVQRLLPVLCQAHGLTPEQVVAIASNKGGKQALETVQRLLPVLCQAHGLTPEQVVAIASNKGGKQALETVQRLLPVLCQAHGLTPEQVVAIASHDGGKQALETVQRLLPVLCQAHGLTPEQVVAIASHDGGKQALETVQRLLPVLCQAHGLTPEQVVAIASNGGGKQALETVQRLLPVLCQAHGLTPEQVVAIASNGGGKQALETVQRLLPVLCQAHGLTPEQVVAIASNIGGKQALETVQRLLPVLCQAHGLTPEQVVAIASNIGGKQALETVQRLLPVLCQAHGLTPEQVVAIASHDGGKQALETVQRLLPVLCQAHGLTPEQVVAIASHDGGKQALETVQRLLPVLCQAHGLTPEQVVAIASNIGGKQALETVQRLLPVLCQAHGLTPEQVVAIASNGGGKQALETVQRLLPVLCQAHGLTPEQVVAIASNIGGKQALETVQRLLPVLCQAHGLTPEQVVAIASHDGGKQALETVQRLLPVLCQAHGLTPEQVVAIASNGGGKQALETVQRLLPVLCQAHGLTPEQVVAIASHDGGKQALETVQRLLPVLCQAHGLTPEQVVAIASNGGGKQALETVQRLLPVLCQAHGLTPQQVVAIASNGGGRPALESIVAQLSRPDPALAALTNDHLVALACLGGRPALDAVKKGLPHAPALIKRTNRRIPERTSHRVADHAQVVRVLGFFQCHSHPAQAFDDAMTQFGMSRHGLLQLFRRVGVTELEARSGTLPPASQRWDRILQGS

[3] = target: T3, TALER18 (synthetic, UniProt B2SU53 SEQ:1-1010)
T3 chain: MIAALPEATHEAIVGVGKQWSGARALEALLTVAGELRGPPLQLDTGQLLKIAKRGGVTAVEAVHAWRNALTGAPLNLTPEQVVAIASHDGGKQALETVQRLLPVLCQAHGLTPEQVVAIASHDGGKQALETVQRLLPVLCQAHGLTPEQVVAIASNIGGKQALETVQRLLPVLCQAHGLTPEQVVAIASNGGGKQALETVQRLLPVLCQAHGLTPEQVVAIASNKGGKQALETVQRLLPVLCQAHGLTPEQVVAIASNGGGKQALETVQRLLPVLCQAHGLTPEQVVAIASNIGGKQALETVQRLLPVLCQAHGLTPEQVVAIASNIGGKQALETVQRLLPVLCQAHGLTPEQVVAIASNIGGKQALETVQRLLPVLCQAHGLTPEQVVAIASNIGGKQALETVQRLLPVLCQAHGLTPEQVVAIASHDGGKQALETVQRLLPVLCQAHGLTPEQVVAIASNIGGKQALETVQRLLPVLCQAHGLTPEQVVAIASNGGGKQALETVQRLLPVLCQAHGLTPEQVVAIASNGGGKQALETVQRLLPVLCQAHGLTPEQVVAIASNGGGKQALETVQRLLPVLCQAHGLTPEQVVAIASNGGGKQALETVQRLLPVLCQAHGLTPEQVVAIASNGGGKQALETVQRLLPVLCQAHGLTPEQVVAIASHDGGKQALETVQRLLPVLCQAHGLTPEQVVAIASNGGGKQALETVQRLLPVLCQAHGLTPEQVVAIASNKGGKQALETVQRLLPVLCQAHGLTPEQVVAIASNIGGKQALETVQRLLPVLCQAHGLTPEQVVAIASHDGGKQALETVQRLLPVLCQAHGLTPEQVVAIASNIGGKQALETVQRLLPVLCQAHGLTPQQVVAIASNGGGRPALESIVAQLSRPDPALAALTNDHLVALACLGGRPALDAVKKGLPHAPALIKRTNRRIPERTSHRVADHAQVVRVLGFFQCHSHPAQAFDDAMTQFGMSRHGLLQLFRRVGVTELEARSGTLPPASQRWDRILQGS

[4] = target: T4, TALER20 (synthetic, UniProt B2SU53 SEQ:1-1010)
T4 chain: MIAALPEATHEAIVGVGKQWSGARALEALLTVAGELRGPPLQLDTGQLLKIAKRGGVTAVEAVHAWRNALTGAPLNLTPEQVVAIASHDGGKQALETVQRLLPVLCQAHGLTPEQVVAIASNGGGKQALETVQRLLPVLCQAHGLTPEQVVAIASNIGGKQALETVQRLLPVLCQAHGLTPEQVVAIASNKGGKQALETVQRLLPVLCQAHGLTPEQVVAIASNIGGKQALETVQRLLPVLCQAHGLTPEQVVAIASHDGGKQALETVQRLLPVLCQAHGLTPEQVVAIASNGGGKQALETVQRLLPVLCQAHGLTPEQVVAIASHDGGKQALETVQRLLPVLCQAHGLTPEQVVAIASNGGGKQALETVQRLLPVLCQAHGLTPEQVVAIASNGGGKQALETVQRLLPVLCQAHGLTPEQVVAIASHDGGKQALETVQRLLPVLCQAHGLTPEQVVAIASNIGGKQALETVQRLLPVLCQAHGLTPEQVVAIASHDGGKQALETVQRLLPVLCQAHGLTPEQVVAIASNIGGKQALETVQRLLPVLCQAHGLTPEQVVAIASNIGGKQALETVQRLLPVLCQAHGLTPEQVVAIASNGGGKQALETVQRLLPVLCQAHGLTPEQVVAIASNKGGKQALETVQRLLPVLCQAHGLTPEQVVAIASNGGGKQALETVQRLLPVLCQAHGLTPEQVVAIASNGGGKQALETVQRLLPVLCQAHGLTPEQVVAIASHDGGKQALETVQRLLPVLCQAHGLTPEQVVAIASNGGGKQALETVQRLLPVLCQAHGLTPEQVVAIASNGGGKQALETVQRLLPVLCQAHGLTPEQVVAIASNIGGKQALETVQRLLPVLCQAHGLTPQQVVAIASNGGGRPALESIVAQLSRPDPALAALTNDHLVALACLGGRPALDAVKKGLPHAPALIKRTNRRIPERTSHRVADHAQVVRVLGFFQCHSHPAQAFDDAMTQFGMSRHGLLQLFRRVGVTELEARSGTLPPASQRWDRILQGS

[5] = target: T5, TALER12 (synthetic, UniProt Q56830 SEQ:262-1344)
T5 chain: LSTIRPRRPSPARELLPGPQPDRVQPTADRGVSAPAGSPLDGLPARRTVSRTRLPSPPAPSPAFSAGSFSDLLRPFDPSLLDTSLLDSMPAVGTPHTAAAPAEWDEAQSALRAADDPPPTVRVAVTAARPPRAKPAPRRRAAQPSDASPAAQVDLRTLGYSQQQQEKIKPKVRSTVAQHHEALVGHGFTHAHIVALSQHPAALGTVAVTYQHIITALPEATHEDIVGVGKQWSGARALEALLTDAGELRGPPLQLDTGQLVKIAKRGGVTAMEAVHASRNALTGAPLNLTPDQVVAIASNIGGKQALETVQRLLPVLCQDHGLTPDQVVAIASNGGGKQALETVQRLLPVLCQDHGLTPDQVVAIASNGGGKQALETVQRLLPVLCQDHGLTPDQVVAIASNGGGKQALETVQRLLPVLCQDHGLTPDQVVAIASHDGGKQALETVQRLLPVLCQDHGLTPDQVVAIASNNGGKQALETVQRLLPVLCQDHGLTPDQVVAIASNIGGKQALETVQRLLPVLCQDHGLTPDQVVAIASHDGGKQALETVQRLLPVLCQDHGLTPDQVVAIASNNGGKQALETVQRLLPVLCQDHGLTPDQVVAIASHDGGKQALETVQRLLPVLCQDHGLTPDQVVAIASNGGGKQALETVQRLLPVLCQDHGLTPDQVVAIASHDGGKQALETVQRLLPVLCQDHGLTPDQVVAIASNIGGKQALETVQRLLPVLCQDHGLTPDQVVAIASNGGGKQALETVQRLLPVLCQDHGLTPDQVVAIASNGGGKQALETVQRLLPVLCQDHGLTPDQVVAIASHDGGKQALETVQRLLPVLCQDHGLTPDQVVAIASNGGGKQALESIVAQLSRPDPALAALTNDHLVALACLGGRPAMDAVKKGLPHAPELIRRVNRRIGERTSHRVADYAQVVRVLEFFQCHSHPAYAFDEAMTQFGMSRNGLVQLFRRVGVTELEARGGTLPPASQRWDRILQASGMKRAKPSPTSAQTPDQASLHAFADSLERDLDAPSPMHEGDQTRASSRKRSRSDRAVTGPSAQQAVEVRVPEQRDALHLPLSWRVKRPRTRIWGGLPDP

B1: T15 site (dsDNA)
DNA 1: TCCTGACCATTCATCAGCCGTCTAT
DNA 2: ATAGACGGCTGATGAATGGTCAGGA
Binder B1 has a binding signal [1] of 13.7 fold repression.

B2: T17 site (dsDNA)
DNA 1: TATTATTGGCCTTAACCATACTCTT
DNA 2: AAGAGTATGGTTAAGGCCAATAATA
For B2, the binding signal [2] was 195 fold repression.

B3: T18 site (dsDNA)
DNA 1: TCCATGTAAAACATTTTTCTGACAT
DNA 2: ATGTCAGAAAAATGTTTTACATGGA
B3 was tested, and the binding signal [3] was 18.5 fold repression.

B4: T20 site (dsDNA)
DNA 1: TCTAGACTCTTCACAATGTTCTTAT
DNA 2: ATAAGAACATTGTGAAGAGTCTAGA
B4 showed a binding signal [4] of 12.3 fold repression.

B5: T12 site (dsDNA)
DNA 1: TATTTCGACGCTCATTCT
DNA 2: AGAATGAGCGTCGAAATA
Work on B5 yielded a binding signal [5] of 1220 fold repression.
